Laboratory results: the RNAGym collection of RNA variant scans (doi:10.1101/gr.219683.116)

B1: mRNA-splicing (parent)
chain: AGUUGCUGCUGGGAGCUCCAGCACAGUGAAAUGGACAGAAGGGCAGAGCAA

Variants of: B1
Test: exon inclusion enrichment index; higher = more inclusion; WT1 exon 5 minigene, HEK293

Question: With AGUUUCUCCUGGGAGCUCCAGCACAGUGAAAUGGACAGAAGGGCAGAGCAA [G5U G8C] as the variant, how does the “exon inclusion enrichment index” value read?
Answer: 1.34

Question: For AGUUAUAUAUGGGAGCUCCAUCACAGUGAAAUGGACAGAAGGGCAGAGCAA [G5A C6U U7A G8U C9A G21U], which “exon inclusion enrichment index” value is on record?
Answer: 0.0639

Question: Which “exon inclusion enrichment index” value does the source give for AGUUAUAUAUGGGAGCUCCAGCACAGUGACGUGGACAGAAGGGCAGAGCAA [G5A C6U U7A G8U C9A A30C A31G] here?
Answer: 0.168

Question: Which “exon inclusion enrichment index” value does the source give for AGUUAGGGAUGGGAGCUCCAGCACAGUGAAAAGGACAGAAGGGCAGAGCAA [G5A C6G U7G C9A U32A] here?
Answer: 0.000886

Question: For AGUUCGCGCCGGGAGCGACAGCACAGUGAAAUGGACAGAAGGGCAGAGCAA [G5C C6G U7C U10C U17G C18A], which “exon inclusion enrichment index” value is on record?
Answer: 3.39

Question: With AGUUCGCGCCGGGAGCUCCAGCACAGUGAAAUGGACAGAAGGGCAGAUCAA [G5C C6G U7C U10C G48U] as the variant, how does the “exon inclusion enrichment index” value read?
Answer: 4.46

Question: Which “exon inclusion enrichment index” value does the source give for AGUUGCUGCUGGGAGCUCUGGCACAGUGAAAUGGACAGAAGGGCAGAGCAA [C19U A20G] here?
Answer: 0.684

Question: With AGUUGUUCUCGGGAGCUCCAGCACAGUGAAAUGGACAGAAGGGCAGAGCAA [C6U G8C C9U U10C] as the variant, how does the “exon inclusion enrichment index” value read?
Answer: 1.11

Question: With AGUUAGGGAUGGGAGCUCCAGCACCCUGAAAUGGACAGAAGGGCAGAGCAA [G5A C6G U7G C9A A25C G26C] as the variant, how does the “exon inclusion enrichment index” value read?
Answer: 0.00427

Question: Which “exon inclusion enrichment index” value does the source give for AGUUCACAGGGGGAGCUCCAGCACAGUGAAAUGGACAGAAGGGCAGAGCAA [G5C C6A U7C G8A C9G U10G] here?
Answer: 0.11

Question: With AGUUCACAGCGGGAGCUCCAGCACAGUGAAAUGGACAGAAGGGCAGAGCAA [G5C C6A U7C G8A C9G U10C] as the variant, how does the “exon inclusion enrichment index” value read?
Answer: 1.42

Question: Which “exon inclusion enrichment index” value does the source give for AGUUCACACAGGGAGCUCCAGCACAGUGAAAUAAACAGAAGGGCAGAGCAA [G5C C6A U7C G8A U10A G33A G34A] here?
Answer: 0.00429

Question: Which “exon inclusion enrichment index” value does the source give for AGUUCACACAGGGAGCUCCAGCACAGUGAAAUACACAGAAGGGCAGAGCAA [G5C C6A U7C G8A U10A G33A G34C] here?
Answer: 0.0321

Question: Which “exon inclusion enrichment index” value does the source give for AGUUCUUCUCGGGAGUCCCAGCACAGUGAAAUGGACAGAAGGGCAGAGCAA [G5C C6U G8C C9U U10C C16U U17C] here?
Answer: 1.08

Question: Which “exon inclusion enrichment index” value does the source give for AGUUGAAGAAGGGAGCUCCAGCACAGUGAAAUUUACAGAAGGGCAGAGCAA [C6A U7A C9A U10A G33U G34U] here?
Answer: 0.0929

Question: With AGUUGACGACGGGAGCUCCAGCACAGUGAAAUGGACAGAUUGGCAGAGCAA [C6A U7C C9A U10C A40U G41U] as the variant, how does the “exon inclusion enrichment index” value read?
Answer: 1.9

Question: For AGUUCGCGCCGGGAGCUCCAGCACAGUGAAAUGGACAGAAGAGCAGAGCAA [G5C C6G U7C U10C G42A], which “exon inclusion enrichment index” value is on record?
Answer: 4.32

Question: Which “exon inclusion enrichment index” value does the source give for AGUUUCUUUUGGGAGCUCCAGCACAGUGAAAUGGACAGAAGCUCAGAGCAA [G5U G8U C9U G42C G43U] here?
Answer: 0.515

Question: With AGUUCACACAGGGAGCUCCAAUACAGUGAAAUGGACAGAAGGGCAGAGCAA [G5C C6A U7C G8A U10A G21A C22U] as the variant, how does the “exon inclusion enrichment index” value read?
Answer: 0.0694

Question: For AGUUGCUGCUGGGAGCUUAAGCACAGUGAAAUGGACAGAAGGGCAGAGCAA [C18U C19A], which “exon inclusion enrichment index” value is on record?
Answer: 0.302

Question: For AGUUGCUGCUGGGAGCUCCAGCACAGUGGGAUGGACAGAAGGGCAGAGCAA [A29G A30G], which “exon inclusion enrichment index” value is on record?
Answer: 0.114

Question: With AGUUGCUGCUGGGAGCUCCAGCACAGUGAAAUGGGCAGAAGGGCAGAGCAA [A35G] as the variant, how does the “exon inclusion enrichment index” value read?
Answer: 0.0494

Question: Which “exon inclusion enrichment index” value does the source give for AGUUGCUGCUGGGAGCUGGAGCACAGUGAAAUGGACAGAAGGGCAGAGCAA [C18G C19G] here?
Answer: 3.04

Question: With AGUUACCACCGGGAGCUCCAGCACAGUGAAAUGGCUAGAAGGGCAGAGCAA [G5A U7C G8A U10C A35C C36U] as the variant, how does the “exon inclusion enrichment index” value read?
Answer: 0.244

Question: For AGUUUCUUUUGGGAGCUCCAGCACAGUGAAAUGGACUGAAGGGCAGAGCAA [G5U G8U C9U A37U], which “exon inclusion enrichment index” value is on record?
Answer: 0.104

Question: With AGUUAUAUAUGGGAGCUCCAGCACAGUGAAAUGGACAGAAGGGCAUUGCAA [G5A C6U U7A G8U C9A G46U A47U] as the variant, how does the “exon inclusion enrichment index” value read?
Answer: 0.0891

Question: For AGUUCUUCUCGGGAGCUCCAGCACAGCGAAAUGGACAGAAGGGCAGAGCAA [G5C C6U G8C C9U U10C U27C], which “exon inclusion enrichment index” value is on record?
Answer: 3.63

Question: For AGUUCUUCUCGGGAGCUCCAGCACAGGGAAAUGGACAGAAGGGCAGAGCAA [G5C C6U G8C C9U U10C U27G], which “exon inclusion enrichment index” value is on record?
Answer: 0.69

Question: Which “exon inclusion enrichment index” value does the source give for AGUUACCACCGGGAGCUCCAGCACAGUGAAAUGGACAGAGAGGCAGAGCAA [G5A U7C G8A U10C A40G G41A] here?
Answer: 1.12

Question: Which “exon inclusion enrichment index” value does the source give for AGUUUCUUUUUGGAGCUCCAGCACAGUGAAAUGGACAGAAGGGCAGAGCAA [G5U G8U C9U G11U] here?
Answer: 0.144

Question: With AGUUGAAGAAGGGAGCUCCAGCACAGUCAAAUGGACAGAAGGGCAGAGCAA [C6A U7A C9A U10A G28C] as the variant, how does the “exon inclusion enrichment index” value read?
Answer: 0.528

Question: With AGUUAGGGAUGGGAGCUCCAGCACACUGAAAUGGACAGAAGGGCAGAGCAA [G5A C6G U7G C9A G26C] as the variant, how does the “exon inclusion enrichment index” value read?
Answer: 0.00298

Question: For AGUUAGGGAUGGGAGCUCCAGCACAGUGAAAUGGACAGAAGGGCAGGCCAA [G5A C6G U7G C9A A47G G48C], which “exon inclusion enrichment index” value is on record?
Answer: 0.000801

Question: Which “exon inclusion enrichment index” value does the source give for AGUUGACGACGGGAGCUCCAUAACAGUGAAAUGGACAGAAGGGCAGAGCAA [C6A U7C C9A U10C G21U C22A] here?
Answer: 2.02

Question: For AGUUCGCGCCUUGAGCUCCAGCACAGUGAAAUGGACAGAAGGGCAGAGCAA [G5C C6G U7C U10C G11U G12U], which “exon inclusion enrichment index” value is on record?
Answer: 1.49

Question: With AGUUGACGACGGGAGAGCCAGCACAGUGAAAUGGACAGAAGGGCAGAGCAA [C6A U7C C9A U10C C16A U17G] as the variant, how does the “exon inclusion enrichment index” value read?
Answer: 2.33

Question: Which “exon inclusion enrichment index” value does the source give for AGUUGCUGCUGGGAGCCCCAGCACAGUGAAAUGGACAGAAGGGCAGAGCAA [U17C] here?
Answer: 0.0839

Question: Which “exon inclusion enrichment index” value does the source give for AGUUCGCGCCGGGAGCUCCCUCACAGUGAAAUGGACAGAAGGGCAGAGCAA [G5C C6G U7C U10C A20C G21U] here?
Answer: 2.17

Question: For AGUUAUAUAUGGGCGCUCCAGCACAGUGAAAUGGACAGAAGGGCAGAGCAA [G5A C6U U7A G8U C9A A14C], which “exon inclusion enrichment index” value is on record?
Answer: 0.0601

Question: Which “exon inclusion enrichment index” value does the source give for AGUUCACACAGGGAGCUCCAGCACAGUGAAAUGGACAGACGGGCAGAGCAA [G5C C6A U7C G8A U10A A40C] here?
Answer: 0.355

Question: For AGUUAGGGAUGGGAGCUCCAGCACAGUGCUAUGGACAGAAGGGCAGAGCAA [G5A C6G U7G C9A A29C A30U], which “exon inclusion enrichment index” value is on record?
Answer: 0.00149

Question: For AGUUGAAGAAGGGAGCUCCAGCACAGUGAAAUGGACAGAAGGAAAGAGCAA [C6A U7A C9A U10A G43A C44A], which “exon inclusion enrichment index” value is on record?
Answer: 1.84

Question: For AGUUGAAGAAGGGAGCUCCAGCACAUGGAAAUGGACAGAAGGGCAGAGCAA [C6A U7A C9A U10A G26U U27G], which “exon inclusion enrichment index” value is on record?
Answer: 1.76

Question: Which “exon inclusion enrichment index” value does the source give for AGUUCGCGCCGGGAGCUCCGUCACAGUGAAAUGGACAGAAGGGCAGAGCAA [G5C C6G U7C U10C A20G G21U] here?
Answer: 2.65

Question: With AGUUAGGGAUGGGAGCUCCAGCACAGUGAAAUGGACAUAAGGGCAGAGCAA [G5A C6G U7G C9A G38U] as the variant, how does the “exon inclusion enrichment index” value read?
Answer: 0.000717

Question: Which “exon inclusion enrichment index” value does the source give for AGUUAUAUAUGGGAGCUCCAGCACAGUGAAAUGGACAGAAGGGCUAAGCAA [G5A C6U U7A G8U C9A A45U G46A] here?
Answer: 0.0424

Question: With AAUUAUAUAUGGGAGCUCCAGCACAGUGAAAUGGACAGAAGGGCAGAGCAA [G2A G5A C6U U7A G8U C9A] as the variant, how does the “exon inclusion enrichment index” value read?
Answer: 0.211

Question: For AGUUUCUUUUGGGAGCUCCAGCACAGUGAAAUGGACAGUGGGGCAGAGCAA [G5U G8U C9U A39U A40G], which “exon inclusion enrichment index” value is on record?
Answer: 0.0207

Question: Which “exon inclusion enrichment index” value does the source give for AGUAUGCGCCGGGAGCUCCAGCACAGUGAAAUGGACAGAAGGGCAGAGCAA [U4A G5U C6G U7C U10C] here?
Answer: 1.96

Question: For AGUUAUAUAUGGGAGCUCCAGCACAGUGAAAUGGAAUGAAGGGCAGAGCAA [G5A C6U U7A G8U C9A C36A A37U], which “exon inclusion enrichment index” value is on record?
Answer: 0.0158

Question: Which “exon inclusion enrichment index” value does the source give for AGUUGAAGAAGGGUGCUCCAGCACAGUGAAAUGGACAGAAGGGCAGAGCAA [C6A U7A C9A U10A A14U] here?
Answer: 0.301
